The results in this text go back to US20190185568A1 (FUSO PHARMACEUTICAL INDUSTRIES, published 2019).

Assay [1] deals with T1, bovine FcγRI-His (soluble extracellular region with 6xHis tag) (bovine).
T1 construct: extracellular domain; also called boFcγRI-His; not shown: limits not st
The experiment in a line: ELISA: antibody immobilized at 1.56 to 50 nM, bovine FcγRI-His added at 10 µg/ml, anti-polyhistidine detection [A]. On the procedure: (§1) Subsequently, each well was washed with […] of 0.05% Tween 20-supplemented PBS (PBS-T) five times, followed by blocking with SuperBlock (PBS) Blocking Buffer (Thermo Fisher Scientific) at 37° C. for 30 min, Each well was washed again in the same manner. Then, bovine FcγRI-His, FcγRII-His, FcγRIII-His or Fcγ2R-His was added to each well at a final concentration of 10 μg/ml and reacted at 37° C. for 1 hr. After washing, anti-polyhistidine tag mouse monoclonal antibody (Abeam) was reacted at 37° C. for 30 min. Subsequently, each well was washed, and horseradish peroxidase-labeled anti-mouse IgG goat polyclonal antibody (MP Biomedicals) was reacted at 37° C. for 30 min. Each well was washed again, and then TMB One Component Substrate (Bethyl) was added for coloring. Thereafter, the enzyme reaction was terminated with 0.18 M dilute sulfuric acid, and absorbance (450 nm) was measured with Microplate Reader MTP-900 (Corona Electric), For every plate washing operation, Auto Plate Washer BIO WASHER 50 (DS Pharma Biomedical) was used.
In general terms: ELISA stands for enzyme-linked immunosorbent assay.

Assay [2] addresses T2, bovine FcγRII-His (soluble extracellular region with 6xHis tag) (bovine, UniProt Q28110 43-225).
T2 construct: extracellular domain; also called boFcγRII-His
T2 sequence: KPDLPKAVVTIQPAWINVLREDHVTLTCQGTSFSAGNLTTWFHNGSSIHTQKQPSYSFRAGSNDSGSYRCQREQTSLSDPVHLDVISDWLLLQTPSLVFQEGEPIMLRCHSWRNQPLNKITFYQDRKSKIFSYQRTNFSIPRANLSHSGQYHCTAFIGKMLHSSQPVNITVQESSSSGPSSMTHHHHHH
The experiment in a line: ELISA: antibody immobilized at 1.56 to 50 nM, bovine FcγRII-His added at 10 µg/ml, anti-polyhistidine detection [B]. Here is the method: as §1

For assay [3], the target named is T3, bovine PD-1-His (soluble bovine PD-1 extracellular region with 6xHis tag) (bovine).
T3 chain: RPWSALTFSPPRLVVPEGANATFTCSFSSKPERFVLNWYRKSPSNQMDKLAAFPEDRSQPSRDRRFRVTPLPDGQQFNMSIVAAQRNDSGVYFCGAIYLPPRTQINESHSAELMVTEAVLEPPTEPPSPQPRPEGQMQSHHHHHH
Put plainly: SPR (Biacore X100), bovine PD-1-His immobilized on CM5 chip, antibody as analyte, single kinetics, n=3. Here is the method: The binding avidities to bovine PD-1 of rat anti-bovine PD-1 antibody 5D2 and rat-bovine chimeric anti-bovine PD-1 antibody ch5D2 were measured by surface plasmon resonance using a bimolecular interaction analyzer (Biacore X100). Briefly, bovine PD-1-His (described above) was immobilized on a CM5 sensor chip (GE Healthcare) as a ligand. Subsequently, rat anti-bovine PD-1 antibody 5D2 or rat-bovine chimeric anti-bovine PD-1 antibody ch5D2 was reacted as an analyte, followed by single kinetics analysis. The experiment was repeated 3 times under the same conditions. Binding constant (kd value) and dissociation constant (ka value) were determined in each experiment, and binding avidity (KD value) was obtained.
In general terms: In SPR one partner is held on a chip, and binding of the other changes the refractive index at the surface.

B1: rat-bovine chimeric anti-bovine PD-1 antibody ch5D2 having wild-type bovine IgG1 (IgG1 WT) (antibody)
heavy: QVQLKETGPGLVQPTQTLSITCTVSGFSLTSYYIQWVRQTPGKGLEWMGFIRSGGSTEYNSEFKSRLSINRDTSKNQVFLKMNSLKTEDTGVYYCARTSSGYEGGFDYWGQGVMVTVSSASTTAPKVYPLSSCCGDKSSSTVTLGCLVSSYMPEPVTVTWNSGALKSGVHTFPAVLQSSGLYSLSSMVTVPGSTSGQTFTCNVAHPASSTKVDKAVDPTCKPSPCDCCPPPELPGGPSVFIFPPKPKDTLTISGTPEVTCVVVDVGHDDPEVKFSWFVDDVEVNTATTKPREEQFNSTYRVVSALRIQHQDWTGGKEFKCKVHNEGLPAPIVRTISRTKGPAREPQVYVLAPPQEELSKSTVSLTCMVTSFYPDYIAVEWQRNGQPESEDKYGTTPPQLDADSSYFLYSKLRVDRNSWQEGDTYTCVVMHEALHNHYTQKSTSKSAGK
light: DVVLTQTPVSLSVTLGDQASISCRSSQSLEYSDGYTYLEWYLQKPGQSPQLLIYGVSNRFSGVPDRFIGSGSGTDFTLKISRVEPEDLGVYYCFQATHDPDTFGAGTKLELKQPKSPPSVTLFPPSTEELNGNKATLVCLISDFYPGSVTVVWKADGSTITRNVETTRASKQSNSKYAASSYLSLTSSDWKSKGSYSCEVTHEGSTVTKTVKPSECS
notes: also called ch5D2 IgG1 WT
Regarding B1, the concentration for a half-maximal effect (EC50 (read off the curve)) – broadly, the concentration needed to bring the measured effect to its halfway point – in assay [1] was around 9 nM. Besides, the binding result in assay [2] is given as “binds”.

B2: rat-bovine chimeric anti-bovine PD-1 antibody ch5D2 (mutated bovine IgG1, IgG1 ADCC-) (antibody)
heavy: QVQLKETGPGLVQPTQTLSITCTVSGFSLTSYYIQWVRQTPGKGLEWMGFIRSGGSTEYNSEFKSRLSINRDTSKNQVFLKMNSLKTEDTGVYYCARTSSGYEGGFDYWGQGVMVTVSSASTTAPKVYPLSSCCGDKSSSTVTLGCLVSSYMPEPVTVTWNSGALKSGVHTFPAVLQSSGLYSLSSMVTVPGSTSGQTFTCNVAHPASSTKVDKAVDPTCKPSPCDCCPPPPVAGPSVFIFPPKPKDTLTISGTPEVTCVVVDVGHDDPEVKFSWFVDDVEVNTATTKPREEQFNSTYRVVSALRIQHQDWTGGKEFKCKVHNEGLPSSIVRTISRTKGPAREPQVYVLAPPQEELSKSTVSLTCMVTSFYPDYIAVEWQRNGQPESEDKYGTTPPQLDADSSYFLYSKLRVDRNSWQEGDTYTCVVMHEALHNHYTQKSTSKSAGK
light: DVVLTQTPVSLSVTLGDQASISCRSSQSLEYSDGYTYLEWYLQKPGQSPQLLIYGVSNRFSGVPDRFIGSGSGTDFTLKISRVEPEDLGVYYCFQATHDPDTFGAGTKLELKQPKSPPSVTLFPPSTEELNGNKATLVCLISDFYPGSVTVVWKADGSTITRNVETTRASKQSNSKYAASSYLSLTSSDWKSKGSYSCEVTHEGSTVTKTVKPSECS
notes: Rat 5D2 variable regions on bovine IgG1 (modified from GenBank X62916) and bovine Ig lambda (X62917); also called ch5D2 IgG1 ADCC-
As to B2, in assay [3], the dissociation constant (Kd) (commonly the free concentration of one partner at which half of the binding sites on the other are occupied at equilibrium, for simple one-to-one binding) was 10.5 nM; the koff – broadly, the first-order rate constant of dissociation – is 0.000216 s⁻¹; the kon – broadly, a measure of how fast the partners come together – was 20700 M⁻¹ s⁻¹. In assay [2], the binding result is reported as “no binding (tested: 50 nM)”.

B3: rat anti-bovine PD-1 monoclonal antibody 5D2 (antibody, V domains shown)
VH: QVQLKETGPGLVQPTQTLSITCTVSGFSLTSYYIQWVRQTPGKGLEWMGFIRSGGSTEYNSEFKSRLSINRDTSKNQVFLKMNSLKTEDTGVYYCARTSSGYEGGFDYWGQGVMVTVSS
VL: DVVLTQTPVSLSVTLGDQASISCRSSQSLEYSDGYTYLEWYLQKPGQSPQLLIYGVSNRFSGVPDRFIGSGSGTDFTLKISRVEPEDLGVYYCFQATHDPDTFGAGTKLELK
notes: Rat monoclonal antibody from a hybridoma; Rat IgG2a (kappa) was used as its isotype control; also called rat anti-bovine PD-1 antibody 5D2
Consider B3, for which, in assay [3], the Kd turned out to be 12.2 nM, the off-rate (koff) worked out at 0.000215 s⁻¹ and the kon amounted to 18400 M⁻¹ s⁻¹.
